Source: patent US20210379147A1, “METHOD AND SYSTEM FOR TREATING CANCER UTILIZING TINAGL1” (The Trustees of Princeton University, priority 2018, published 2021)

Experiments:
LM2 cells = test: Experimental lung metastasis after intravenous injection of LM2 cells, BLI and nodule count; type: in vivo, NSG mice
Procedure: FIG. 6 is a graph of lung metastasis burden measured by BLI every week, for NSG mice under one of three treatment regimens: 1) PBS immediately following injection (510), 2) PBS for the first two weeks followed by r-Tinagl1 treatment (520), and 3) r-Tinagl1 immediately after injection (530).
Referring to FIG. 6, to further evaluate the therapeutic potential of r-Tinagl1 treatment during metastasis, LM2 cells were injected intravenously to generate lung metastasis, and the mice were separated into three distinct treatment groups: 1) PBS immediately following injection (510), 2) PBS for the first two weeks followed by r-Tinagl1 treatment (520), and 3) r-Tinagl1 immediately after injection (530).
For xenograft studies, 8-weeks immunocompromised NOD Scid Gamma (NSG) or immunocompetent FVB females were used. Cells were suspended in 10 μl of PBS for mammary gland injection (MFP), or were suspended in 100 μl of PBS for intravenous injection. For human patient-derived xenograft (PDX, HCL001, kindly provided by Dr. Alana Welm) study, we followed the standard protocol for PDX transplantation, maintenance and digestion of the tumors (DeRose et al., 2011). 2×10^4 cells were suspended in 10 μl of PBS and subjected to MFP injection. For recombinant Tinagl1 (r-Tinagl1), ATN-161, Erlotinib treatments, the mice were injected with 30 μg/mouse, 30 μg/mouse, and 100 mg/kg respectively twice per week via tail-vein. Primary tumors were quantified once per week via caliper measurement. All cell lines used for lung metastasis experiments were stably labeled with a firefly luciferase expressing vector and were monitored by weekly bioluminescent imaging (BLI). At protocol-defined endpoints, lungs were dissected and fixed in bouin's solution and the metastatic lesions were counted.

EGFR = EGFR (Homo sapiens, UniProt P00533); test: EGF-induced EGFR activation in LM2 cells (WB); type: cell-based; details: 1 hour pre-treatment, then EGF 10 min
Procedure: FIG. 11A is an image of WB analyses where LM2 cells with or without 1 hour pre-treatment of the indicated amount of r-Tinagl1 were then treated with indicated amount of EGF for another 10 min, then lysed.
For WB analysis, cells were collected and lysed with IP lysis buffer described above. After boiled with SDS laemmli buffer, the samples were resolved with SDS-PAGE gel and immunoblotted with standard protocols.
Cells were treated with r-Tinagl1 and the activity of EGFR and integrin/FAK signaling pathways was evaluated. To test EGFR activation, the LM2 cells were subjected to EGF, r-Tinagl1, or EGF/r-Tinagl1 combined treatment. […] Referring to FIGS. 11B and 11C, EGF-dependent activation of EGFR was similarly attenuated in cells expressing Tinagl1 compared to control cells.

EGFR and FAK pathways = test: EGFR and FAK pathway activation in SUM159-M1a cells on FN (WB, FIG. 12); type: cell-based, human
Procedure: FIG. 12 is an image of WB analyses where a 6-well plate was coated with 10 μg/ml of FN or 10 μg/ml of FN+r-Tinagl1, then SUM159-M1a cells were serum starved for 24 hr, and then seeded on the plate with the media contain 10% FBS and 1 ng/ml of EGF, and then 3 hr after seeding, the cells were treated with […] FAK inhibitor 14 (FAKi) for 2 hr, followed by 1 hr treatment of 100 nM Erlotinib (Erlo), 1 μg/ml r-Tinagl1 alone or combined, and finally the cells were treated with 1 ng/ml of EGF for another 10 min, and then collected for WB analysis.
Furthermore, p-AKT and p-ERK levels were lowered in r-Tinagl1 treated samples that samples treated with either FAK inhibitor 14 (FAKi) and or EGFR inhibitor Erlotinib (Erlo) alone.

EGFR dimerization = molecular target: T1, EGFR dimerization (Homo sapiens, UniProt P00533); test: EGFR dimerization in LM2 cells (co-IP of EGFR-GFP/EGFR-Myc; DSS cross-linking); type: cell-based; details: 1 μg/ml r-Tinagl1 1 hr
T1 construct: host or cells: LM2
Procedure: FIG. 14A is an image of WB analyses where LM2 cells were transfected with plasmids to overexpress GFP-EGFR and EGFR-Myc. 48 hr after transfection, the cells were treated with or without 1 μg/ml of r-Tinagl1 for 1 hr, followed by 10 min of 1 ng/ml EGF treatment, then collected and immunoprecipitated with either IgG or anti-Myc antibody, after which the IP samples were subjected to WB analysis.
FIG. 14B is a graph illustrating the quantified amount of EGFR-GFP that interacts with EGFR-Myc, normalized to PBS treatment group.
FIG. 14C is an image of WB analyses where LM2 cells stably expressed EGFR-Myc were pretreated with PBS or 1 μg/ml of r-Tinagl1 for 1 hr, treated with 1 ng/ml of EGF for another 10 min, then cells were collected and the dimers were cross-linked with disuccinimidyl suberate (DSS) treatment, followed by WB analysis.
FIG. 14D is a graph illustrating the ratio of dimerized EGFR in each treatment group that was quantified.
Whether Tinagl1 prevents EGFR dimerization independent of interfering with EGF binding to EGFR was tested. […] To further validate this conclusion, LM2 cells with EGFR-Myc stably expressed were treated with EGF or r-Tinagl1 alone or combination. […]
The assay was performed as previously described (Wang et al., 2015). […] Finally, the cells were then lysed with IP lysis buffer for 20 min on ice, and EGFR dimerization was analyzed by WB.

B1: r-Tinagl1: full length recombinant human Tinagl1 with 6×His tag at the C-terminus [SEQ ID NO.: 24], expressed in HEK293T cells (protein, listed as Homo sapiens)
chain: MWRCPLGLLLLLPLAGHLALGAQQGRGRRELAPGLHLRGIRDAGGRYCQEQDLCCRGRADDCALPYLGAICYCDLFCNRTVSDCCPDFWDFCLGVPPPFPPIQGCMHGGRIYPVLGTYWDNCNRCTCQENRQWQCDQEPCLVDPDMIKAINQGNYGWQAGNHSAFWGMTLDEGIRYRLGTIRPSSSVMNMHEIYTVLNPGEVLPTAFEASEKWPNLIHEPLDQGNCAGSWAFSTAAVASDRVSIHSLGHMTPVLSPQNLLSCDTHQQQGCRGGRLDGAWWFLRRRGVVSDHCYPFSGRERDEAGPAPPCMMHSRAMGRGKRQATAHCPNSYVNNNDIYQVTPVYRLGSNDKEIMKELMENGPVQALMEVHEDFFLYKGGIYSHTPVSLGRPERYRRHGTHSVKITGWGEETLPDGRTLKYWTAANSWGPAWGERGHFRIVRGVNECDIESFVLGVWGRVGMEDMGHHVDHHHHHH
modifications: C-terminal 6xHis tag
With B1 the “metastatic growth (BLI)” value (LM2 cells; PBS for the first two weeks followed by r-Tinagl1 treatment) was “dramatically decreased metastatic growth”, the “number of lung metastasis nodules” value (LM2 cells; both r-Tinagl1 treatment groups, end of experiment) was “significantly reduced number of lung metastasis nodules” and the “metastatic growth (BLI)” value (LM2 cells; r-Tinagl1 immediately after injection (continuous)) was “significantly reduced metastatic growth”. For the same molecule, the “EGF-induced EGFR activation” value (EGFR) was “dramatically attenuated”, the “activation of EGFR and FAK pathways (p-EGFR, p-FAK, p-ERK, p-AKT)” value (EGFR and FAK pathways; 1 μg/ml r-Tinagl1, 1 hr) was “inhibited the activation of both EGFR and FAK pathways” and the “p-AKT and p-ERK levels versus FAKi or Erlo alone” value (EGFR and FAK pathways; FAKi, 100 nM Erlo, 1 μg/ml r-Tinagl1) was “lowered”. For the same molecule, the “amount of EGFR-GFP bound by EGFR-Myc” value (EGFR dimerization; in the presence of EGF) was “significantly reduced the amount of EGFR-GFP bound by EGFR-Myc” and the “dimer form of EGFR (DSS cross-linking)” value (EGFR dimerization; then EGF) was “reduced”.
